We go through four compounds from publication PMC5750218, “Protein-inspired antibiotics active against vancomycin- and daptomycin-resistant bacteria” (Nature Communications, 2018).

By bioavailability is commonly meant the share of a dose that reaches the circulation, judged against a reference dose that is usually intravenous. A lower bioavailability goes with little systemic uptake. One may read the AUC(0-inf) as the area under the concentration-time curve extrapolated to infinity. Lower therefore signals less exposure. By AUC(0-t) is commonly meant exposure summed from dosing to a finite time, without extrapolation to infinity. Low readings indicate low exposure, high ones high exposure. By clearance is commonly meant the rate of elimination divided by the concentration. Lower therefore signals inefficient removal. By half-life is commonly meant the time in which the quantity being followed falls by half. As a reminder, the Cmax is the maximum level reached in the sampled fluid or tissue. For orientation: Tmax means the time from dosing to the highest level.

Structures are written as SMILES. Values after ≈ are worked out from the molar mass of the structure shown. Read-outs that look alike come from different tables or passages of the source.

The subject of series [1] is S. aureus ATCC 43300. As to the kind of experiment: Membrane depolarisation assay (diSC3(5)). The note with it: 16 µg mL^−1, 30 min, MRSA ATCC 43300. It counts as cell-based, Staphylococcus aureus. As to the method:
Antibiotic-induced bacterial cytoplasmic membrane depolarisation was determined using the fluorescent dye 3,3-dipropylthiacarbocyanine diSC3(5) (Sigma Aldrich, Australia) as previously described. Briefly, early exponential phase cells were pelleted and washed twice in 10 mM HEPES buffer (pH 7.4) containing 50 µg mL^−1 of CaCl2 and 5 mM Glucose, and then re-suspended in the same buffer (2 × 10^8 CFU mL^−1). diSC3(5) was added to a final concentration of 1.5 µM and incubated at room temperature in the dark to enable dye uptake and fluorescence quenching. After 30 min, cells were diluted 50-fold in assay buffer and 45 µL of cells were added to a 384-well black walled polystyrene plate (Corning, CLS3573) (Note: NBS plates were not employed, and no polysorbate-80 was added to avoid potential effects on membrane permeability, or interference with fluorescence as previously reported. The MICs of compounds in polystyrene plates are listed in Supplementary Table 12). Background data was collected before adding compounds using a Tecan Infinite® m1000 Pro Multi-mode reader (excitation/emission 612/665 nm) to ensure fluorescence quenching. Compounds were added to a final concentration of 16 µg mL^−1 and fluorescence was monitored for 30 min. Data were corrected by subtraction of background response (diSC3(5) in the presence of untreated cells, no compound). […] Each sample was tested in quadruplicate and independent assays were performed twice showing similar results. Data were analysed and presented using Prism software.

For series [2], the system named is S. pneumoniae ATCC 700677 MDR. As to the kind of experiment: microbe, parasite or virus in culture. The note with it: for MIC: Streptococcus pneumoniae, ATCC700677, 24 h, read-out: MIC S. pneumoniae ATCC 700677 MDR. It counts as cell-based, Streptococcus pneumoniae. The method, then:
(§1) The compounds, along with standard antibiotics were serially diluted twofold across the wells of 96-well non-binding surface (NBS) polystyrene plates (Corning 3641). […] Standards ranged from 64 to 0.03 µg mL^−1 and compounds from 8 to 0.003 µg mL^−1 with final assay volumes of 100 µL per well. Gram-positive bacteria were cultured in Mueller Hinton broth (MHB) (Bactolaboratories, Cat. no. 211443) at 37 °C overnight. A sample of each culture was then diluted 40-fold in fresh MHB and incubated at 37 °C for 2–3 h. The resultant mid-log phase cultures were added to the compound-containing 96-well plates to give a final cell density of 5 × 10^5 colony forming unit (CFU) mL^−1. All the plates were covered and incubated at 37 °C for 24 h. MICs were the lowest concentration showing no visible growth.

Series [3] relates to S. pneumoniae ATCC 33400. Briefly: microbe, parasite or virus in culture. It counts as cell-based, Streptococcus pneumoniae. The note with it: for MIC: Streptococcus pneumoniae, ATCC33400, 24 h, read-out: MIC S. pneumoniae ATCC 33400. As to the method: as §1
The test system of series [4] is Multi-drug-resistant S. pneumoniae ATCC 700677. As to the kind of experiment: microbe, parasite or virus in culture. In a few lines:
(§2)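 Broth microdilution in Mueller Hinton broth with twofold serial dilutions of compound from 8 to 0.003 µg mL^−1.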

The subject of series [5] is Vancomycin-intermediate S. aureus NRS1. Briefly: microbe, parasite or virus in culture. In a few lines: as §2
In series [6] the test system is Vancomycin-resistant (VanA) Enterococcus faecium ATCC 51559. Briefly: microbe, parasite or virus in culture. A digest of the protocol:
as §2

Series [7] relates to S. aureus ATCC 43300 MRSA. As to the kind of experiment: microbe, parasite or virus in culture. The class given is cell-based, Staphylococcus aureus. The note with it: for MIC: Staphylococcus aureus, 24 h, read-out: MIC S. aureus ATCC 43300 MRSA. The method, then:
as §1

For series [8] the following is noted: 37 °C, 20 µM.
Series [9] can be described thus: In vivo pharmacokinetics in mice. The note with it: mouse; for level at […]: 0.250 h; for level at 0.5 h: 0.500 h; for MRT inf: read-out: MRT0-inf; for MRT last: read-out: MRT0-last.
Protocol: Performed by WuXi AppTec (Shanghai) Co., Ltd. Seven to 9-week-old male CD1 mice (SLAC Laboratory Animal Co. Ltd., Shanghai, China) weighing 25–35 g were acclimated for approximate 3 days before being used in the study. Animals are group housed during acclimation and in-life study in compliance with the National Research Council 'Guide for the Care and Use of Laboratory Animals.' The animal room environment is controlled (target conditions: temperature 18 to 26 °C, relative humidity 30–70%, 12 h artificial light and 12 h dark) with temperature and relative humidity monitored daily. Animals were deprived of food for approximately 16 h before formulation administration then allowed access to Certified Rodent Diet (Catalogue # M-01F, Shanghai SLAC Laboratory Animal Co. Ltd.) ad libitum 4 h post dosing. Water was autoclaved before being provided to the animals ad libitum. Formulations of compounds were prepared on the morning of the dosing day. The formulation for the IV group was filtered with filter of 0.22 μm before being dosed to animals. After dose formulation preparation, duplicate 50 μL aliquots were removed from each dose formulation for use in dose validation. For each compound studied, three mice were dosed intravenously (IV) administered to each animal via tail vein per facility SOPs using test article formulated in deionised water at 1 mg mL^−1 with a dose volume of 2 mg mL^−1, providing a dose of 2 mg mL^−1 (based on free base concentration). An additional three mice were dosed subcutaneously (SC) administered to each animal via subcutaneous bolus on each animals’ back per facility SOPs using test article formulated in deionised water at 2 mg mL^−1 with a dose volume of 5 mg mL^−1, providing a dose of 10 mg mL^−1. All animals were killed at the last study time point (100% CO2 was introduced into the animal box).
Plasma samples were collected as the following target times after each dose administration: IV Sampling Time points (hours post dosing): 0, 0.083, 0.25, 0.5, 1, 2, 4, 8 and 24. SC Sampling Time points (hours post dosing): 0, 0.25, 0.5, 1, 2, 4, 8 and 24. Approximately 30 μL blood was obtained via submandibular or saphenous vein for the first several time points. For the last time point, samples were collected via cardiac puncture while the mouse was under anaesthesia. All blood samples were transferred into pre-chilled plastic microcentrifuge tubes containing 2 μL of ethylenediaminetetraacetic acid dipotassium salt (K2-EDTA) (0.5 M) as anticoagulant and placed on wet ice until centrifugation. Harvested blood samples were centrifuged within 30 min of collection at 7000 rpm (8546 × g) 4 °C for about 10 min. After centrifugation, plasma was transferred into another pre-labelled and pre-chilled polypropylene microcentrifuge tubes, then quick-frozen over dry ice and stored at −70 ± 10 °C until LC/MSMS analysis.
LC-MS/MS methods for the quantitative determination of the test article in mouse plasma were developed with an internal standard. Benchtop stability of the compound in mouse plasma was determined at mid QC concentrations in triplicate at 0, 2 h at room temperature. The stability was determined using mean peak area ratio of T2/T0 sample. If the mean peak area ratio is within 80%~120%, the test article in the plasma is considered stable for 2 h at room temperature. […] A set of QC samples consists of three concentration levels (low, middle and high). The sample analysis was performed concurrently with a set of calibration standards and two sets of QC samples using the LC-MS/MS method.
Plasma concentration vs. time data from individual animals was analysed by WinNonLin non-compartmental model (Phoenix WinNonlin 6.2.1, Pharsight, Mountain View, CA). Pharmacokinetic parameter C 0, T ½, CL, Vdss, C max, T max, AUC0-last, AUC0-inf, %F, MRT0-last, MRT0-inf and graphs of plasma concentration vs. time profile were derived.
Setting [10] is: male, CD1, plasma, 2 mg/kg IV, read-out: Plasma concentration, Mean IV.
Where [11] appears, read: male, CD1, plasma, 10 mg/kg SC, read-out: Plasma concentration, Mean SC.

On to `CN[C@H]1C(=O)N[C@@H]2Cc3ccc(cc3)Oc3cc4cc(c3O[C@@H]3O[C@H](C(=O)O)[C@@H](O)[C@H](O)[C@H]3NC(=O)CCCCCCCCC(C)C)Oc3ccc(cc3Cl)[C@@H](O)[C@@H]3NC(=O)[C@H](NC(=O)[C@@H]4NC(=O)[C@@H](NC2=O)c2cc(cc(O)c2Cl)Oc2cc1ccc2O)c1ccc(O)c(c1)-c1c(O[C@H]2O[C@H](CO)[C@@H](O)[C@H](O)[C@@H]2O)cc(O)cc1[C@@H](C(=O)NCCCN(C)C)NC3=O` [Compound 3, Dalbavancin], for which the “Dissipation of membrane potential (diSC3(5) fluorescence)” value in series [1] is reported as “no effect”. For the same compound, the “MIC S. pneumoniae ATCC 700677 MDR” value in [2] (1% Survanta) and in series [2] (no added Survanta) was 0.06 µg/mL (≈ 0.033 µM) throughout. The entries for the “MIC S. pneumoniae ATCC 33400” value in series [3] (1% Survanta), in series [3] (5% Survanta) and in [3] (no added Survanta) were 0.06 µg/mL (≈ 0.033 µM), 0.125 µg/mL (≈ 0.0688 µM) and 0.06 µg/mL (≈ 0.033 µM), respectively. Moreover, in [4] (S. pneumoniae ATCC 700677), the “MIC MDR S.P.” value was 0.09 µg/mL (≈ 0.0495 µM). The “MIC VISA” value in series [5] (S. aureus NRS1) was 1 µg/mL (≈ 0.55 µM). Further, the “MIC VRE” value in series [6] (E. faecium MDR VanA ATCC 51559, substance alone) is greater than 8 µg/mL. Moreover, the figures for the “MIC S. aureus ATCC 43300 MRSA” value in [7] (1% Survanta) and in [7] (5% Survanta) were 0.06 µg/mL (≈ 0.033 µM) and 0.125 µg/mL (≈ 0.0688 µM), respectively.
Take `CCCCCCCCCC(=O)N[C@@H](Cc1c[nH]c2ccccc12)C(=O)N[C@H](CC(N)=O)C(=O)N[C@@H](CC(=O)O)C(=O)N[C@@H]1C(=O)NCC(=O)N[C@@H](CCCN)C(=O)N[C@@H](CC(=O)O)C(=O)N[C@H](C)C(=O)N[C@@H](CC(=O)O)C(=O)NCC(=O)N[C@H](CO)C(=O)N[C@@H]([C@H](C)CC(=O)O)C(=O)N[C@@H](CC(=O)c2ccccc2N)C(=O)O[C@@H]1C` [Compound 4, Daptomycin]: the “Dissipation of membrane potential (diSC3(5) fluorescence)” value in [1] is given as “no effect”. For the same compound, the MIC was greater than 8 µg/mL in [2] (1% Survanta); greater than 8 µg/mL in [2] (5% Survanta); 4 µg/mL (≈ 2.47 µM) in series [2] (no added Survanta); greater than 8 µg/mL in series [3] (1% Survanta); greater than 8 µg/mL in [3] (5% Survanta); 2 to 4 µg/mL (≈ 1.23 to 2.47 µM) in series [3] (no added Survanta). Further, the MIC was 2 µg/mL (≈ 1.23 µM) in series [4] (Streptococcus pneumoniae, ATCC700677, read-out: MIC MDR S.P.); 12 µg/mL (≈ 7.4 µM) in series [5] (Staphylococcus aureus, NRS1 / VISA, read-out: MIC VISA); 16 µg/mL (≈ 9.87 µM) in [6] (Enterococcus faecium, ATCC51559 / VRE, read-out: MIC VRE); greater than 8 µg/mL in series [7] (1% Survanta); greater than 8 µg/mL in series [7] (5% Survanta); 2 µg/mL (≈ 1.23 µM) in series [7] (no added Survanta).
With `CCCCCCCCCCCCCC(=O)N[C@@H](CCCCN)C(=O)N[C@@H](CCCCN)C(=O)N[C@@H](CCCCN)C(=O)N[C@@H](CCCCNC(=O)[C@H]1NC(=O)[C@H]2NC(=O)[C@H](NC(=O)[C@@H]3NC(=O)[C@H](CC(N)=O)NC(=O)[C@H](NC(=O)[C@@H](CC(C)C)NC)[C@H](O)c4ccc(c(Cl)c4)Oc4cc3cc(c4O[C@@H]3O[C@H](CO)[C@@H](O)[C@H](O)[C@H]3O[C@H]3C[C@](C)(N)[C@H](O)[C@H](C)O3)Oc3ccc(cc3Cl)[C@H]2O)c2ccc(O)c(c2)-c2c(O)cc(O)cc21)C(=O)O` [Compound 17, nC13CO-KKK-K(Vancomycin)-OH], the “% compound remaining after incubation in 50% human plasma, 0h” value in [8] was 100%. The “MIC MDR S.P.” value in series [4] (ATCC 700677) was less than 0.003 µg/mL. The “MIC VISA” value in [5] (Vancomycin-intermediate NRS1) was found to be 0.03 µg/mL (≈ 0.0138 µM). In addition, in series [6] (ATCC 51559), the “MIC VRE” value worked out at 0.125 µg/mL (≈ 0.0575 µM).
As for `CNC(=O)[C@H](CCCCNC(=O)[C@H]1NC(=O)[C@H]2NC(=O)[C@H](NC(=O)[C@@H]3NC(=O)[C@H](CC(N)=O)NC(=O)[C@H](NC(=O)[C@@H](CC(C)C)NC)[C@H](O)c4ccc(c(Cl)c4)Oc4cc3cc(c4O[C@@H]3O[C@H](CO)[C@@H](O)[C@H](O)[C@H]3O[C@H]3C[C@](C)(N)[C@H](O)[C@H](C)O3)Oc3ccc(cc3Cl)[C@H]2O)c2ccc(O)c(c2)-c2c(O)cc(O)cc21)NC(=O)[C@H](CCCCN)NC(=O)[C@H](CCCCN)NC(=O)[C@H](CCCCNC(=O)c1ccc(Oc2ccccc2)cc1)NC(=O)c1ccc(Oc2ccccc2)cc1` [Compound 24, POB2K-KK-K(Vancomycin)-NHMe], the level at 5 min in series [9] (male, CD1, plasma, 2 mg/kg IV, 5 min, n=3, read-out: Plasma concentration, Mean IV) worked out at 13800 ng/mL. Further, in [9] (setting [10]), the level at […] was determined as 10000 ng/mL, the level at 0.5 h came out at 5230 ng/mL, the level at 1 h stood at 3010 ng/mL and the level at 2 h stood at 1210 ng/mL. Also, in [9] (setting [10]), the level at 4 h worked out at 285 ng/mL and the level at 8 h worked out at 81.9 ng/mL. Also, the level at […] in [9] (male, CD1, plasma, 10 mg/kg SC, n=3, read-out: Plasma concentration, Mean SC) is 227 ng/mL. Also, in series [9] (setting [11]), the level at 0.5 h was 548 ng/mL, the level at 1 h stood at 1400 ng/mL, the level at 2 h was determined as 1920 ng/mL and the level at 4 h stood at 2350 ng/mL. For the same compound, in series [9] (setting [11]), the level at 8 h stood at 845 ng/mL. For the same compound, in series [9] (male, CD1, plasma, 10 mg/kg SC, 24.0 h, read-out: Plasma concentration, Mean SC), the level at 24 h came to 243 ng/mL. For the same compound, the AUC0-inf/AUC0-last in [9] (IV 2 mg kg-1) was 101%. Moreover, in series [9] (SC 10 mg kg-1), the AUC0-inf/AUC0-last was found to be 113% and the Tlast stood at 24 h. In [9] (plasma, subcutaneous, SC 10 mg kg-1 vs IV 2 mg kg-1), this compound returned a bioavailability of 36.3%. In series [9] (plasma, IV 2 mg kg-1), this compound gave an AUC(0-inf) of 11200 ng·h/mL, an area under the curve AUC(0-t) of 11000 ng·h/mL, a C0 of 16300 ng/mL and a clearance of 2.98 mL/min/kg. In [9] (plasma, IV 2 mg kg-1), the half-life is 2.29 h, the MRT inf turned out to be 1.39 h and the MRT last was 1.24 h. In addition, the Vd in [9] (plasma, IV 2 mg kg-1, read-out: Vdss) was 0.248 L/kg. For the same compound, in series [9] (plasma, SC 10 mg kg-1), the AUC(0-inf) was 22600 ng·h/mL, the AUC(0-t) is 20000 ng·h/mL, the concentration peaked (Cmax) at 2350 ng/mL and the Tmax was found to be 4 h. Also, in series [9] (plasma, SC 10 mg kg-1), the half-life is 6.97 h, the MRT inf came out at 11 h and the MRT last worked out at 7.99 h. The “% compound remaining after incubation in 50% human plasma, 0h” value in series [8] is given as 100%. Also, the “MIC S. pneumoniae ATCC 700677 MDR” value in [2] (5% Survanta) is 0.25 µg/mL (≈ 0.106 µM). Further, in [2] (no added Survanta), the “MIC S. pneumoniae ATCC 700677 MDR” value is no more than 0.003 µg/mL. In series [4] (ATCC 700677), the “MIC MDR S.P.” value is less than 0.003 µg/mL. Also, the “MIC VISA” value in series [5] (Vancomycin-intermediate NRS1) was 0.125 µg/mL (≈ 0.0528 µM). Further, in series [6] (ATCC 51559), the “MIC VRE” value was 0.5 µg/mL (≈ 0.211 µM).
